Laboratory results as given in patent US20200239593A1 (AIMM THERAPEUTICS B V, published 2020).
Values belong to the binder of their own block, whether it stands above or below them.

Assays:
[1] = biological target: T1, snRNP200 (endogenous, from THP-1 cells) (human, UniProt O75643 1-2136); experiment: immunoprecipitation from THP-1 membrane lysate, Western blot with mouse-anti-human snRNP200
T1 construct: also called U5-snRNP
Procedure: FIG. 20A. THP-1 membrane lysate was incubated with AT12-023 and AT13-031, with the influenza-specific antibody AT10-002 or with marker alone.
THP-1 cells were lysed and precleared with an irrelevant antibody (in-house generated RSV antibody D25) and beads to remove non specific binding proteins. Precleared lysate was then incubated with bead-labeled AML-specific antibodies or with the influenza specific antibody AT10-002 as a negative control (3 hrs at 4° C.). Antibody-incubated lysates were washed five times, bound proteins were eluted from the THP-1 lysate and then run on an SDS-PAGE gel. Proteins were blotted and stained with Ponseau S to reveal total protein. The blot was blocked with BSA and incubated with mouse-anti-snRNP200 (Millipore, clone 3B6.1) or Rabbit-anti-HMGB1 (Abcam) for Western blot analysis. Intracelllar staining for snRNP200 was performed after fixing and permeabilizing THP-1 cells with methanol (Sigma) and permeabilization buffer containing triton X-100 (Sigma), EDTA (Gibco) and BSA (Roche), followed by incubation with rabbit-anti-human snRNP200 antibody (Sigma) overnight at 4° C.

snRNP200-flag construct = biological target: T2, snRNP200-flag construct (UniProt O75643 1-2136, limits assumed); experiment: capture ELISA: antibody coated, snRNP200-flag lysate (3 ug/ml) captured, anti-flag HRP detection
T2 construct: mature; Used as lysate at 3 ug/ml, not purified; also called full-length snRNP200 with an N-terminal FLAG tag; not shown: N-terminal FLAG tag
T2 sequence (O75643 whole entry): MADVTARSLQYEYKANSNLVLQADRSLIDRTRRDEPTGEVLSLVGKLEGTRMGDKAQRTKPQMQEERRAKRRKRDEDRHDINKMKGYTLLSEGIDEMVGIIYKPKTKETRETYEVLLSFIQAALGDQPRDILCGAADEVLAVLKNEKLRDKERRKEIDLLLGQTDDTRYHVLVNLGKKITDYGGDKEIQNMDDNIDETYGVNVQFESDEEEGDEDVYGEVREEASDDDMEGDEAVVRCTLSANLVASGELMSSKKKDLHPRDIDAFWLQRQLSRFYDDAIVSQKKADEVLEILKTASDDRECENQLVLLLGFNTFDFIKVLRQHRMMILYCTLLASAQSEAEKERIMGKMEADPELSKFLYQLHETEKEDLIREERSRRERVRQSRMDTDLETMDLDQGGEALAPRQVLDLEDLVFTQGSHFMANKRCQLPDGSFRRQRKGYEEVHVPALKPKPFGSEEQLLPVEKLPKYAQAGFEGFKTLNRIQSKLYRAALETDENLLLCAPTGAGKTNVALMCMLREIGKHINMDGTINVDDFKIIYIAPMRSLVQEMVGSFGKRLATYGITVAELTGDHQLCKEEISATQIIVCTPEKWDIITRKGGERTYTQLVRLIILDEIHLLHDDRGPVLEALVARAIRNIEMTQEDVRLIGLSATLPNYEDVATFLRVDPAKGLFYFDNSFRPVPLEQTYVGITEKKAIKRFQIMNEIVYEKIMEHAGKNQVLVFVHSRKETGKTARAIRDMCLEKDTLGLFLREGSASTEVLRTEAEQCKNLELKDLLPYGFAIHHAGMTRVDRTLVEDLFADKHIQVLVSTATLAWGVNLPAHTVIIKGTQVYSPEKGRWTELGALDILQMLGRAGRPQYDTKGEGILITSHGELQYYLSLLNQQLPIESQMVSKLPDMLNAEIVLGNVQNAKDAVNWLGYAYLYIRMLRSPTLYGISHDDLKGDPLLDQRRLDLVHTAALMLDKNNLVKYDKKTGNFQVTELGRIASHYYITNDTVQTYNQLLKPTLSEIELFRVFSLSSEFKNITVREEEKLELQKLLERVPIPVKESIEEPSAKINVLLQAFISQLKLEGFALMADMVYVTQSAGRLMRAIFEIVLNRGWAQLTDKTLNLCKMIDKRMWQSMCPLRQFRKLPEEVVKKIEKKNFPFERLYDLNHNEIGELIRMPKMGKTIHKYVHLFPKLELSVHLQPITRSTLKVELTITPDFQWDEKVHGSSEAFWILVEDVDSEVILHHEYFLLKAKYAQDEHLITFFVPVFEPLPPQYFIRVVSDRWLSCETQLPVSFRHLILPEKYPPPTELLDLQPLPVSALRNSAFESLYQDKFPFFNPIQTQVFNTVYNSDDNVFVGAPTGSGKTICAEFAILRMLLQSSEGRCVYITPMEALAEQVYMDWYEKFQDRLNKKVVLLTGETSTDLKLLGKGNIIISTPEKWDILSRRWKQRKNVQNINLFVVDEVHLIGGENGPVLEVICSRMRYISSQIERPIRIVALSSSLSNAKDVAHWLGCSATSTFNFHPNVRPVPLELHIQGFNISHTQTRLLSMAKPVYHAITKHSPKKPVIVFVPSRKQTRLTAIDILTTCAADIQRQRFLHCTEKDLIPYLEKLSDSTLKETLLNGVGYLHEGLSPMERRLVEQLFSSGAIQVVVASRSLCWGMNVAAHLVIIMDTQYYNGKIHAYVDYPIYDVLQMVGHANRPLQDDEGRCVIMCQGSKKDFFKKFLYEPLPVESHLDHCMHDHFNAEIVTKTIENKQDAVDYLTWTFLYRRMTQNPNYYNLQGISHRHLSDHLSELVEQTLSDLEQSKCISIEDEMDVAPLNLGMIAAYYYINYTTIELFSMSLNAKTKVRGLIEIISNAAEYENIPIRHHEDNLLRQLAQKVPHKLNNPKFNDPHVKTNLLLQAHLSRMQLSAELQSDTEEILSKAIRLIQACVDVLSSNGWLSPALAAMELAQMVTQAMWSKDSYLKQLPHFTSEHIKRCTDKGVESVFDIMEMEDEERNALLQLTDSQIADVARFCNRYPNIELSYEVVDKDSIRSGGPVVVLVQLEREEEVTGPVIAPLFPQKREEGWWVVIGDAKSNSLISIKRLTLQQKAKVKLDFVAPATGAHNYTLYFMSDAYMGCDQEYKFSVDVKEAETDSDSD
Procedure: FIG. 20B. AML specific antibodies AT12-019, AT12-023, AT13-031 and AT13-037 or commercially available snRNP200-specific antibodies snRNP200 453 and snRNP200 454 were coated on an ELISA plate, incubated with a snRNP200-flag construct for capturing and with anti-flag HRP for detection.
HEK 293T cells were transfected with an expression vector containing the full-length open reading frame of snRNP200 with an N-terminal FLAG tag. At 2 days after transfection cells were harvested and lysed in lysis buffer containing protease inhibitors. This lysate was cleared and protein concentration was measured. AML specific antibodies AT12-019, AT12-023, AT13-031 and AT13-037 or commercially available snRNP200 specific antibodies (Bethyl labs) were then coated on an ELISA plate. The lysate was added at a concentration of 3 μg/ml for capturing. After extensive washing, captured snRNP200-flag was detected with a monoclonal mouse anti-flag HRP antibody (Sigma-Aldrich, clone M2).

T1 sequence (O75643 whole entry): as above

binding result [1]: binds
B1: AT12-023 (antibody, V domains shown)
VH: QVQLQQWGAGLLKPSETLSLTCAVYGGSFSGYYWSWIRQPPGKGLEWIGEINHSGSTNYNPSLKSRVTISVDTSKNQFSLKLSSVTAADTAVYYCARGRSTSPLDYYYYYMDVWAKGTTVTVSS
VL: SSELTQDPAVSVALGQTVRITCQGDFLRSYYASWYQQKPGQAPVLVIFGKNKRPSGIPDRFSGSSSGNTASLTITGAQAEDEADYYCNSRDRSGNHLVFGGGTKLTVL
notes: Human antibody from AML patient donor 59; also called antibody AT12-023

binding result (snRNP200-flag construct): no binding
B2: AT12-019 (antibody, IgG1, V domains shown)
VH: EVHLLESGGGLVQPGGSLRLSCAASGFTFSSYAMSWVRQAPGKGLEWVSTIRASGGSTSYADSVKGRFTISRDNSQSRLYLQMNSLTAEDTAVYYCAKSPAMIRGVRGGDYFDYWGQGTLVTVSS
VL: AIRLTQSPSSVSASTGDRVTITCRASQAFSSYLVWYQQKPGKAPNLLIYATSTLQGGVPSRFSGSGSGTDFTLTISNLQSEDFATYYCQQYYSYPPTFGQGTKLEIK
notes: Human antibody from AML patient donor 59; also called antibody AT12-019
